# Measurements published in the nanobody polyreactivity screen of Harvey et al. (2022).
# Assay: yeast display, Sf9 membrane polyspecificity reagent, FACS + sequencing; frameworks hold sequencing errors
# How it was run: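 Nanobodies from a synthetic yeast display library (Saccharomyces cerevisiae BJ5465), induced 36–48 hours with galactose, were stained 1 hour at 4 °C with 10% biotinylated, detergent-solubilized Sf9 membrane reagent, enriched on streptavidin microbeads, then FACS-sorted. Anti-HA (expression) and streptavidin (reagent binding) fluorescence set low and high (top ~1%) gates. Polyreactivity labels come from the gate of origin. Genes were colony-PCR amplified, MiSeq 2 × 250 sequenced and filtered by CDR length.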
row,Sequence,polyreactivity (PSR sort gate)
1,QVQLVESGGGLVQAGGSLRLSCAASGRIFEEYVMGWYRQAPGKERELVAAISFSGSRTYADSVKGRFTISRDNAKNTVYLQMNSLKPEDTAVYYCAADPSISYDYWGQGTQVTVSS,low polyreactivity
2,QVQLVESGGGLVQAGGSLRLSCAASGRIFEGYAMGWYRQAPGKEELVAAITSDASTYYADSVKGRFTISRDNAKNTVYLQMNSLKPEDTAVYYCAADTYDNDYYYWGQGTQVTVSS,high polyreactivity
3,QVQLVESGGGLVQAGGSLRLSCAASGRIFEPYAMGWYRQAPGKERELFAAITSGGSTDYADSVKGRFTISRDNAKNTVYLQMNSLKPEDTAVYYCAARVTYGGIPARQIYDYWGQGTQVTVSS,low polyreactivity
4,QVQLVESGGGLVQAGGSLRLSCAASGRIFERYAMGWYRQAPGKERELVAAISWSGGSTYYADSVKGRFTISRDNAKNTVYLQMNSLKPEDTAVYYCAARKYRSFRQRTGDYWGQGTQVTVSS,high polyreactivity
5,QVQLVESGGGLVQAGGSLRLSCAASGRIFEVYAMGWYRQAPGKERELVARISDGGGSTYYADSVKGRFTISRDNAKNTVYLQMNSLKPEDTAVYYCAAGGDLRLDRRFAFVSRGDYWGQGTQVTVSS,low polyreactivity
6,QVQLVESGGGLVQAGGSLRLSCAASGRIFFENTMGWYRQAPGKERELVAAISSSGTTNYADSVKGRFTISRDNAKNTVYLQMNSLKPEDTAVYYCNAVLHGEQVGKYIAYVYWGQGTQVTVAS,low polyreactivity
7,QVQLVESGGGLVQAGGSLRLSCAASGRIFFGNTMGWSRQAPGKERELVAVIDRSGGTTYYADSVKGRFTSSRDNAKNTVYLQMNSLKPEDTAVYYCAAIRRQKGLWDYYYWGQGTQVTVST,low polyreactivity
8,QVQLVESGGGLVQAGGSLRLSCAASGRIFFKYAMGWYRQAPGKERELVAAISSSGGRTSYADSVKGRFTISRDNAKNTVYLQMNSLKPEDTAVYYCNVKPSARGSPLYDYWGQGTQVTVSS,high polyreactivity
9,QVQLVESGGGLVQAGGSLRLSCAASGRIFFLYAMGWYRQAPGKERELVAAITKSGGSTYADSVKGRFTISLDNAKNTVYLQMNSLKPVDTAVYYCATENTECRDSGYIVKYGSDYWGQGTQVTVSS,low polyreactivity
10,QVQLVESGGGLVQAGGSLRLSCAASGRIFFNYAMGWYRQAPGKERELVAAIRGGGSTYADSVKGRFTISCDNAKNTVYLQMNSLKPEDTAVYYCAARYSGSPYHTRRYYYWGQGTQVTVSS,high polyreactivity
11,QVQLVESGGGLVQAGGSLRLSCAASGRIFFPYAMGWYRQAPGKERELVAAINYSGGSTYYADSVKGRFTISRDNAKYTVYLQMNSLKPEDTAVYYCAKEYGKAYDYWGQGTLVTVSS,high polyreactivity
12,QVQLVESGGGLVQAGGSLRLSCAASGRIFFRNAMGWYRQAPGKDRELVAAITWNGGSTYYADSVKGRFTISRDNAKNTVYLQMNSLKPEDTAVYYCATKTLSRTRTYYYWGQCTQVTVSS,high polyreactivity
13,QVQLVESGGGLVQAGGSLRLSCAASGRIFFRNAMGWYRQAPGKERELVAAISKSGTRTYYADSVKGRFTISRDNAKNTVYLQMHSLKPEDTAVYYCNALLRDCGTYAGDDYWGQGTQVTVSS,high polyreactivity
14,QVQLVESGGGLVQAGGSLRLSCAASGRIFFRYAMGWYIQAPGKEREFVAAISGSAGSTYYADSVKGRFKISRDNAKNTVYLQMNSLKPEDTAVYYCAARKAKVSNGLKYDYWGQGTQVTVSS,low polyreactivity
15,QVQLVESGGGLVQAGGSLRLSCAASGRIFFRYDLGWYRQAPGKERELVAAISGGDRTSYADSVKGRFTISRDNAKITVYLQMNSLKPEDTAVYYCAGKRRSGEYYYWGQGTQVTVSS,low polyreactivity
16,QVQLVESGGGLVQAGGSLRLSCAASGRIFFSNAMGWYRQAPGKERELVASITGGDDTNYADSVKGRFTISRDNAKNTVYLQMNSLKPEDTAVYYCAARAIPSYRWVYRFAPKYDYWGQGTQVTVSS,low polyreactivity
17,QVQLVESGGGLVQAGGSLRLSCAASGRIFFSTVMGWDRQAPGKERELVAAISWSGGSTYYADSVKGRFTISRDNAKNTVYLQMNSLKPEDTAVYYCNRLSASVQYGYWGQGTQVTVSS,high polyreactivity
18,QVQLVESGGGLVQAGGSLRLSCAASGRIFFTNAMGWYTQAPGKERELVAAISKSGARTYYADSVKGRFTISRDNAKNTVYLLMNSLKPEDTAVYYCAADVCVYGYDYWGQGTQVTVSS,high polyreactivity
19,QVQLVESGGGLVQAGGSLRLSCAASGRIFFTYVMGWYRQAPGKERELVATIRVSGGSTYYADSVKGRFTISRDNAKNTVYLQMNSLKPEDTAVYYCAASGASWSLHYAGDYWGQGTQVTVSS,high polyreactivity
20,QVQLVESGGGLVQAGGSLRLSCAASGRIFFVYAMGWYRQAPGKERELVAAISVSDVSTSYADSVKGRFTISRDNAKNTVYLQMNSLKPEDTAVYYFNAGFRFYTYSRIAGEDYGGQGTQVTVSS,low polyreactivity

row,Sequence,polyreactivity (PSR sort gate)
1,QVQLVESGGGLVQAGGSLRLSCAASGRIFFVYAMGWYRQAPGKERELVAHIPSGGSTSYADSVKGRFTISRDNAKNTDYLQMNSLKPEDTAVYSCAARYLGYIYVYYHYTDDYWGQGTQVTVSS,low polyreactivity
2,QVQLVESGGGLVQAGGSLRLSCAASGRIFFVYAMGWYRQAPGKERELVASITGGGSTNYADSVKGRFTISRDNAKNTVYLQMNSLKPEDTAVYYCGADIHSTRVFPEYPSGYDYWGQGTQVTVSS,low polyreactivity
3,QVQLVESGGGLVQAGGSLRLSCAASGRIFFWNALGWYRQAPGKEREFVATISWNDAITYYADSVKGRFTISRDNAKNTVYLQMNSLKPEDTAVYYCNVDPKIVFSFGYDYWGQGTQVTVSS,low polyreactivity
4,QVQLVESGGGLVQAGGSLRLSCAASGRIFFYAMGWYRQAPGKERELVASITTSGTSTYYADSVKGRFTISRDNAKNTVYLQMNSLKPEDTAVYYCNARVRYTVGPLSSLDGEYWGQGTQVTVSS,low polyreactivity
5,QVQLVESGGGLVQAGGSLRLSCAASGRIFFYNAMGWYRQAPGKERELVAAIDSGSSTYYADSVKGRFTISRDNAKNTVYLQMTSLKPEDTAVYYCAADGRRWYTEYDYWGQGTQVTVSS,low polyreactivity
6,QVQLVESGGGLVQAGGSLRLSCAASGRIFFYNVMGWYRQAPGKERELVAAITTIGGSTYYADSVKGRFTISRDNAKNTVYLQMNTLKPEDTAVYYCAAGWVTNSDGMDYWGQGTQVTVSS,low polyreactivity
7,QVQLVESGGGLVQAGGSLRLSCAASGRIFFYYAMGWYRQAPGTERELVAAITSGGNTNYADSVKGRFTISRDNAKNTVYLQMNSLKPEDTAVYYCAVDSWEYWRRGIYYYRFYYWGQGTQVTVSS,low polyreactivity
8,QVQLVESGGGLVQAGGSLRLSCAASGRIFGANAMGWYRQAPGKERELVAAISRTGGSTYYADSVKGRFTISRDNAKNTVYLQMNSLKPEDTAVYYCNAVYRYAHPMEYWGQGTQVTVSS,high polyreactivity
9,QVQLVESGGGLVQAGGSLRLSCAASGRIFGANAMGWYRQAPGKERELVAVITGGGGTYYADSVKGRFTISRDNSKNTVYLQINSLKPEDTAVYYCDWPRYYYTYPSHPMDYWGQGTQVTVSS,low polyreactivity
10,QVQLVESGGGLVQAGGSLRLSCAASGRIFGAYAMGWYRPAPGKERELVAAITSRGSTNYADSVKGRFTISRDHAKNTVYLQMNSLNPEDTAVYYCARRAVYSKRRYDYWGQGTQVTVSS,low polyreactivity
11,QVQLVESGGGLVQAGGSLRLSCAASGRIFGAYAMGWYRQATGKERELVAAIRWSGARTYYADSVKGRFTISRDNAKNTVYLQMNSLKPEDTAVYYCATRQAYRPLKFDYWGQGTQVTVSS,high polyreactivity
12,QVQLVESGGGLVQAGGSLRLSCAASGRIFGAYARGWYRQAPGKERELVAAITSAGSTHYADSVKGRFTISRDNAKNTVYLQMNSLKPEDTAVYYCAADGIARAYVLFDAYDFLYDYWGQGTQVSVSS,low polyreactivity
13,QVQLVESGGGLVQAGGSLRLSCAASGRIFGAYTMGWYRQAPGKERELVAAISWSGGRTYYADSVKGRFTISRDNAKNTVYLQMNSVKPEDTAVYYCAASYSGRQDRYPHYDYWGQGTQVTVSS,low polyreactivity
14,QVQLVESGGGLVQAGGSLRLSCAASGRIFGDNAMGWYRQAPGKERELVATISRGGTTNYADSVKGRFTISRDNAKNTVYLQMNSLKPEDTAVYYCNARSGGHGYSRYQTYLRYDYWGQGTQVTVSS,low polyreactivity
15,QVQLVESGGGLVQAGGSLRLSCAASGRIFGDYAMGWYRQAPGKERELVAAINSSGTSTNYADSVKGRFTISRDNAKNTVYLQMNSLKPEDTAVYYCNAEGTYRPDYDSWGQGTQVTVSS,low polyreactivity
16,QVQLVESGGGLVQAGGSLRLSCAASGRIFGDYAMGWYRQAPGKERELVAAISWSDGSTYYADSVKGRFTISRDNAKNTVYLQMNSLKPEDTAVYYCAAYGWGYRYVDVVVSDFYYWGQGTQVTVSS,low polyreactivity
17,QVQLVESGGGLVQAGGSLRLSCAASGRIFGFNAMGWYRQAPGKERELVAGITDSSGRTNYADSVKGRFTISRDNAKNTVYLQMNSLKPEDTAVYYCAKDGLVIPADGSDYWGQGTQVTVSS,low polyreactivity
18,QVQLVESGGGLVQAGGSLRLSCAASGRIFGFNTMGWYRQAPGKERELVAAITSRDGRTYYADSVKGRFTISRDNAKNTVYLQMNSLKPEDTAVYYCATQYRWYAESHGLVTSVIMYSWGQGTQVTVSS,low polyreactivity
19,QVQLVESGGGLVQAGGSLRLSCAASGRIFGFYALGWYRQAPGKERELVAAITVSGSSTRYADSVKGRFTISRDNAKNTVYLQMNSLKPDDTAVYYCAASVGQFRYRYKWTFGNARMYYWGQGTQVTVSS,high polyreactivity
20,QVQLVESGGGLVQAGGSLRLSCAASGRIFGFYAMGWYRQAPGKERELVAVITYRDGRTYYADSVKGRFTISRDNAKNTVYLQMNSLKPQDTAVYYCAADRGVYDPGDYWGQGTQVTVSS,low polyreactivity
